According to patent publication US20160002322A1 (INDUSTRY ACADEMIC COOPERATION FOUNDATION HALLYM UNIVERSITY, published 2016):
No end group written: not given here.

Legend:
[1] = biological target: mouse TM4SF5 peptide (mTM4SF5) (mouse); assay: SPR, Biacore T100, 25 C; biotinylated peptide captured on streptavidin-coated CM4 chip, antibody injected at 2-32 nM
Protocol: (§1) Affinity of anti-hTM4SF5 monoclonal antibody binding to human TM4SF5 peptide (hTM4SF5) and mouse TM4SF5 peptide (mTM4SF5) was measured using Biacore T100 (Biacore) at 25° C. Biotinylated peptides were captured on individual flow cell surface of a CM4 sensor chip coated with streptoavidin. Biotin served as a negative control. Anti-TM4SF5 monoclonal antibody at concentrations ranging from 2 to 32 nM was injected at a flow rate of […]. Data were evaluated using Biacore Bia evaluation software (version 3.0).

[2] = biological target: T1, hTM4SF5 peptide (138-NRTLWDRCEAPPRV-151) (human, also: biotinylated for SPR capture (position not given here)); assay: SPR (Biacore T100, 25 C), biotinylated hTM4SF5 peptide captured on a streptavidin-coated CM4 chip, antibody injected at 2 to 32 nM
T1 construct: also called human TM4SF5 peptide
T1 peptide: NRTLWDRCEAPPRV
Protocol: as §1

[3] = biological target: mouse TM4SF5 peptide (mTM4SF5) (mouse); assay: SPR (Biacore T100, 25 C), biotinylated mTM4SF5 peptide captured on a streptavidin-coated CM4 chip, antibody injected at 2 to 32 nM
Protocol: as §1

[4] = biological target: T1, hTM4SF5 peptide (138-NRTLWDRCEAPPRV-151); assay: SPR, Biacore T100, 25 C; biotinylated peptide captured on streptavidin-coated CM4 chip, antibody injected at 2-32 nM; human TM4SF5 (not mouse); peptide on the chip per methods
Protocol: as §1

Kd [1]: ~2 nM
Kd [2]: 2.74 nM
Kd [3]: 1.87 nM
Kd [4]: ~2 nM
B1: anti-TM4SF5 monoclonal antibody 2D4-18 (antibody, V domains shown)
VH: GDLVKPGGSLKLSCAASGFTFSSYGMSWVRQTPDKRLEWVATISSGGGYTYYPDSVKGRFTISRDNAKNTLYLQMRSLKSEDTAMYYCARHEGFTTYYFDYWGQGTTLTVSS
VL: LSLPVSLGDQASISCRSSQSILHSSGNTYLEWYLQKPGQSPKLLIYKVSNRFSGVPDRFSGSGSGTDFTLKISRVEAEDLGVYYCFQGSHVPFTFGSGTKLEIKR
notes: DyLight 750-labelled in the biodistribution experiment; also called TM4SF5-targeted mAb (2D4-18); anti-hTM4SF5 monoclonal antibody
